In patent US20240352434, “COMPOSITIONS COMPRISING A VARIANT CAS12I3 POLYPEPTIDE AND USES THEREOF” (Arbor Biotechnologies, Inc., published 2024):
Positions count from the first letter of the chain named.

T1: Cas12i3 T977R (Unidentified, T977R)
T1 chain: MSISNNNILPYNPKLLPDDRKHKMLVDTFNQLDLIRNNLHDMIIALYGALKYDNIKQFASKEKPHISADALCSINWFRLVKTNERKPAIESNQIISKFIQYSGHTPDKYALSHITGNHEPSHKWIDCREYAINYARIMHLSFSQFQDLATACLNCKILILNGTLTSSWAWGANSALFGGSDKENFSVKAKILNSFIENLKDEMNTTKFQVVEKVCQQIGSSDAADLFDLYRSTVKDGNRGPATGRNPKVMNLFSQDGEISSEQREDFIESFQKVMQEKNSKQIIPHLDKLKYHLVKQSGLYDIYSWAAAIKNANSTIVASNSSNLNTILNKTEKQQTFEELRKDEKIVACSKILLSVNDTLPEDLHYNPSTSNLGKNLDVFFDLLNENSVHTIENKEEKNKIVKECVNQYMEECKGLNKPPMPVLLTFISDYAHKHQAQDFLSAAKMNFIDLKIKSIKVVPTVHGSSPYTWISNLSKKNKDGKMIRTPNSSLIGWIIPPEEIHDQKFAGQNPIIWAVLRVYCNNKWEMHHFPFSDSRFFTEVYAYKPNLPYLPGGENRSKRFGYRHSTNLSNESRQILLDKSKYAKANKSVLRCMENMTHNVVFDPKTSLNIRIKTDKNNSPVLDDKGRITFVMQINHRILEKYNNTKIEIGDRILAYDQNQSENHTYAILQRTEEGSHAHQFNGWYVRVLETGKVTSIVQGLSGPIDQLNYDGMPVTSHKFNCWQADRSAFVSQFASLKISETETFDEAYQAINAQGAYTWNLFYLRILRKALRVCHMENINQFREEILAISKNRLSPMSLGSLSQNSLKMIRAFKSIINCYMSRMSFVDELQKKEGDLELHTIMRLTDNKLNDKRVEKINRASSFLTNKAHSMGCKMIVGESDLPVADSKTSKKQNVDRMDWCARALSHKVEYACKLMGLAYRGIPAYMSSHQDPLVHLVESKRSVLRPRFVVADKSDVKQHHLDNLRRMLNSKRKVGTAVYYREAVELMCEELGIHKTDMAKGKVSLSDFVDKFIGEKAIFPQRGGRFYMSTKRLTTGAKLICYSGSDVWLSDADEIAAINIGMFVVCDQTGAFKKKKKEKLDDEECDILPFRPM

T2: Cas12i3 S559R (Unidentified, S559R)
T2 chain: T1 chain with S559R, R977T

B1: VEGFA_T2 crRNA ; VEGFA_T2 target (ssRNA ; dsDNA)
RNA: AUAGUGUGUCCUUAGUUGACAUAAUCCUCCACCAGUCAUGGU
DNA 1: AATCCTCCACCAGTCATGGT
DNA 2: ACCATGACTGGTGGAGGATT
B2: AAVS1_T3 crRNA ; AAVS1_T3 target (ssRNA ; dsDNA)
RNA: AUAGUGUGUCCUUAGUUGACAUGUGAGAAUGGUGCGUCCUAG
DNA 1: GTGAGAATGGTGCGTCCTAG
DNA 2: CTAGGACGCACCATTCTCAC
B3: EMX1_T5 crRNA ; EMX1_T5 target (ssRNA ; dsDNA)
RNA: AUAGUGUGUCCUUAGUUGACAUUAUUAUUCCCAUAGGGAAGG
DNA 1: TATTATTCCCATAGGGAAGG
DNA 2: CCTTCCCTATGGGAATAATA

Biological target: T1, Cas12i3 T977R
Assay: cell_activity; fold change in % indels, HEK293T; PAM not stated in example
Protocol: (§1) Approximately 16 hours prior to transfection, 100 μl of 25,000 HEK293T cells in DMEM/10% FBS+Pen/Strep were plated into each well of a 96-well plate. On the day of transfection, the cells were 70-90% confluent. For each well to be transfected, a mixture of 0.5 μl of Lipofectamine 2000 and 9.5 μl of Opti-MEM was prepared and then incubated at room temperature for 5-20 minutes (Solution 1). […] In the case of negative controls, the crRNA was not included in Solution 2. The solution 1 and solution 2 mixtures were mixed by pipetting up and down and then incubated at room temperature for 25 minutes. Following incubation, 20 μL of the Solution 1 and Solution 2 mixture were added dropwise to each well of a 96 well plate containing the cells. 72 hours post transfection, cells are trypsinized by adding 10 μL of TrypLE to the center of each well and incubated for approximately 5 minutes. 100 μL of D10 media was then added to each well and mixed to resuspend cells. The cells were then spun down at 500 g for 10 minutes, and the supernatant was discarded. QuickExtract buffer was added to ⅕ the amount of the original cell suspension volume. Cells were incubated at 65° C. for 15 minutes, 68° C. for 15 minutes, and 98° C. for 10 minutes.
(§2) Samples for Next Generation Sequencing were prepared by two rounds of PCR. The first round (PCR1) was used to amplify specific genomic regions depending on the target. PCR1 products were purified by column purification. Round 2 PCR (PCR2) was done to add Illumina adapters and indexes. Reactions were then pooled and purified by column purification. Sequencing runs were done with a 150 cycle NextSeq v2.5 mid or high output kit.

First: B1
Second: B2
The binding signal of the first is lower: 1.35 fold of wild-type for the first, 2.37 fold of wild-type for the second.

For B3, the binding signal was 1.04 fold of wild-type.

Biological target: T2, Cas12i3 S559R
Assay: as above
Protocol: as §1, §2

Going from B1 to B2, the binding signal rises from 1.17 fold of wild-type to 1.28 fold of wild-type.

B3 was tested, and the binding signal was 0.95 fold of wild-type.
